Patent publication US20240239894A1 (AstraZeneca / MedImmune, published 2024)

What was measured:
[1] = biological target: T1, Cyno B7-H4-Fc (Cyno B7H4 ECD, FcTM_6His) (cynomolgus monkey); test: HTRF binding, human IgG1
T1 construct: extracellular domain; also called cynomolgus B7-H4-Fc

[2] = biological target: T2, Murine B7-H4-Fc (Mouse B7H4 ECD, Fc_6His) (mouse, UniProt Q7TSP5 25-257); test: HTRF binding, human IgG1
T2 construct: extracellular domain; also called mouse B7-H4-Fc; FcHis6 tagged murine B7-H4
T2 sequence (Q7TSP5 whole entry, looked up): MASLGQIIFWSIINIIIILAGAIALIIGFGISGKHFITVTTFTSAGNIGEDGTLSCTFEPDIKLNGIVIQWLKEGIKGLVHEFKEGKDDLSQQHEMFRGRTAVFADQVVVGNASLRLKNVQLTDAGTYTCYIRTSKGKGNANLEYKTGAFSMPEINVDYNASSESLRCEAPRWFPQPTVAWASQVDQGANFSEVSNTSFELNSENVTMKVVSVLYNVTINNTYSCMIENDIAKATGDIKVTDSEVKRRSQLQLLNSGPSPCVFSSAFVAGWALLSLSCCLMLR

[3] = biological target: T3, Human B7-H4 ECD-Flag-His10 (monomeric) (human, UniProt Q7Z7D3 25-259); test: Octet BLI, hIgG1 on Protein G (n = 1)
T3 construct: Minimally biotinylated for KinExA; also called hB7H4-ECD-Flag-His10; B7-H4-FLAG
T3 sequence: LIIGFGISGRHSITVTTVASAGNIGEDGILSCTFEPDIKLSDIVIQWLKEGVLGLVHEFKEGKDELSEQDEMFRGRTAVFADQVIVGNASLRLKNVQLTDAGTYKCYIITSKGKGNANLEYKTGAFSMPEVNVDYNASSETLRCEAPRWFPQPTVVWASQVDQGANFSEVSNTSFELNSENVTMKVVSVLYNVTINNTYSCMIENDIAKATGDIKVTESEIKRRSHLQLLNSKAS

[4] = biological target: T4, Murine B7-H4 ECD-Flag-His10 (monomeric) (mouse, UniProt Q7TSP5 25-257); test: Octet BLI, hIgG1 on Protein G (n = 1)
T4 construct: extracellular domain; also called FlagHis10 murine B7-H4
T4 sequence (looked up): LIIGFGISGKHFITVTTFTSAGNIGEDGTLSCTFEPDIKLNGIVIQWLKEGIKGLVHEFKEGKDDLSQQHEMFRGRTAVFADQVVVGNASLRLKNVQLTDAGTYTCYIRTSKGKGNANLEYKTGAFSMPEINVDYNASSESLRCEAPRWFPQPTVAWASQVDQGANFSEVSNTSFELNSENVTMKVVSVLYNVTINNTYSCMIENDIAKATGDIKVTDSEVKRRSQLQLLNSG

[5] = biological target: T5, Human B7-H4-Fc (Human B7H4 ECD, Fc_6His) (human); test: HTRF binding, human IgG1
T5 construct: also called FcHis6 tagged human B7-H4
T5 sequence (Q7Z7D3 whole entry, looked up): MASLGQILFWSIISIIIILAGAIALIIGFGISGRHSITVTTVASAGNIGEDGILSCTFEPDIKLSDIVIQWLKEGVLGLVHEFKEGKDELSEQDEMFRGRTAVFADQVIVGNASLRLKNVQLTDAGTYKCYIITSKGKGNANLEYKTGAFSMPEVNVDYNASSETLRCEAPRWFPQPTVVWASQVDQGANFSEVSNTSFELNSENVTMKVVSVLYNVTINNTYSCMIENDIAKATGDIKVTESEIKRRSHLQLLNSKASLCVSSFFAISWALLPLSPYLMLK

[6] = biological target: T6, Human B7H4 ECD (SV), splice variant, 10His_FLAG (human); test: Octet BLI, hIgG1 on Protein G (n = 1)
T6 construct: also called B7-H4-SV

Binder | EC50 [1] [nM] | Max [1] | EC50 [2] [nM] | Max [2] | Kd [3] [nM] | koff [3] [s⁻¹] | kon [3] [M⁻¹ s⁻¹] | Kd [4] [nM] | koff [4] [s⁻¹] | kon [4] [M⁻¹ s⁻¹] | EC50 [5] [nM] | Max [5] | Kd [6] [nM] | koff [6] [s⁻¹] | kon [6] [M⁻¹ s⁻¹]
ZY0EP0-C07 human IgG1 (antibody, V domains shown, also called ZY0EPO-C07) VH: QVQLVESGGVLVKPGGSLRLSCAASGFTLSDYYMSWIRQAPGMGLEWVSYISSSGSTIYYTDSVKGRFTISRDSAKNSLYLQMNSLRAEDTAVYYCARDGVGFDYWGQGTLVTVSS VL: EIVLTQSPGTLSLFPGERATLSCRASQSVSSSYLAWYQQKPGQSPRLLIYAASSRATGIPDRFSGSGSGTDFTLTISRLEPEDFAVYYCQQYGSSPLYTFGQGTKLEIK | 0.33 | 946 | 0.18 | 1320 | 7 | 0.000363 | 48800 | 9 | 0.000551 | 60200 | 0.3 | 1220 | – | – | –
ZY0EO5-E07 human IgG1 (antibody, V domains shown, also called ZY0E05-E07; E05-E07) VH: QVQLQESGPGLVKPSQTLSLTCTVSGGSISSGGYYWSWIRQHPGKGLEWIGNIYYSGSTYYNPSLKSRVTISVDTSKNQFSLKLSSVTAADTAVYYCAREKALASVIPSGYENYYVVDVWGQGTTVTVSS VL: DIQLTQSPSFLSASVGGRVTITCWASQGIAGYLAWYQQKPGKAPKLLIYAASTLQSGVPSRFSGSGSGTEFTLTISSLQPEDFATYYCQHLNSYPLTFGGGTKVEIK | 0.18 | 1360 | 0.21 | 1300 | 14.6 | 0.000318 | 21700 | 23.2 | 0.000415 | 17900 | 0.19 | 1710 | 182 | 0.000528 | 2910
ZY0EOB-F05 human IgG1 (antibody, V domains shown) VH: QVQLQESGPGLVKPSQTLSLTCTVSDGSISSGGYYWSWIRQHPGKGLEWIGNIYYSGSTYYNPSLKSRVTISVDTSKNQFSLKLNSVTAADTAVYYCATEKALATVTPSGYENYYTVDVWGQGTTVTVSS VL: DIQLTQSPSFLSASVGDRVTITCWASQGISSYLAWYQQKPGKAPKLLIYAASTLQSGVPSRFSGSGSGTEFTLTISSLQPEDFATYYCQHLNSYPLTFGGGTKVEIK | 0.14 | 1480 | 0.19 | 1320 | 11.7 | 0.000362 | 31000 | 19.8 | 0.000493 | 24900 | 0.15 | 1820 | 127 | 0.000598 | 4710
ZY0EPQ-E02 human IgG1 (antibody, V domains shown) VH: QVQLQQWGAGLLKPSETLSLTCAVYGGSFSGYYWNWIRQPPGKGLEWIGEINHSGSTNYNPSLKSRVTILVDTSKNQFSLKLSSVTAADTAVYYCARNLYNWNLDSWGQGTLVTVSS VL: DIQMTQSPSSLSASVGDRVTITCRASQGIRNDLGWYQQKPGRAPKRLIYVASSLQSGVPSRFSGSGSGTEFTLTISSLQPEDFATYYCLQHNSYPRTFGQGTKVEIK | 0.33 | 987 | 1.49 | 279 | 24 | 0.00208 | 85900 | 498 | 0.0498 | 100000 | 0.38 | 1130 | 1030 | 0.00252 | 2460
ZY0EQD-E02 human IgG1 (antibody, V domains shown) VH: QVQLQQWGAGLLKPSETLSLTCAVYGGSFSGYYWNWIRQPPGKGLEWIGEINHSGSTSYNPSLKSRVTISVDTSKNQFSLKLSSVTAADTAVYYCARVLYNWNVDSWGQGTLVTVSS VL: DIQMTQSPSSLSASVGDRVTITCRASQDIRNDVGWYQQKPGKAPKRLIYAASRLQSGVPSRFSGSGSGTEFTLTISSLQPEDFATYYCLQHNSYPRTFGQGTKVEIK | 0.28 | 1130 | 1.4 | 167 | 14.9 | 0.00321 | 216000 | 625 | 0.213 | 341000 | 0.35 | 1240 | 834 | 0.00349 | 4190
